# Measured values reported in patent US20190309074A1, “DEGLYCOSYLATED ANTIBODY SPECIFICALLY BINDING TO CLEC14A AND USES THEREOF” (WOORI TECHNOLOGIES CORPORATION, priority 2016, published 2019).
# T1: hclec14a-CTLD-Fc (Homo sapiens, UniProt Q86T13)
# T1 sequence (Q86T13 33-173 limits assumed): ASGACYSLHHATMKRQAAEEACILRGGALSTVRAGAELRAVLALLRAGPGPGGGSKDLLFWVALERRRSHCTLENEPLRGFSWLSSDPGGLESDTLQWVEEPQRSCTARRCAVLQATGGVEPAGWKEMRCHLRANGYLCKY
# T2: mclec14a-CTLD-Fc (Mus musculus, UniProt Q8VCP9)
# T2 construct: both human and mouse clec14a-CTLDs (hclec14a-CTLD and mclec14a-CTLD)
# T2 sequence (Q8VCP9 33-173 limits assumed): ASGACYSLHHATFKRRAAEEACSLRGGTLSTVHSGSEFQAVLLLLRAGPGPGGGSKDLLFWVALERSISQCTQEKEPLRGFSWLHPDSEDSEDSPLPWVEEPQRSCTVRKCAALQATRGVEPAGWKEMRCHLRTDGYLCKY
# What was measured:
# [1] = system: HUVEC tube formation; experiment: HUVEC tube formation assay; format: cell-based, human; conditions: branches as % of MOCK
# Experimental: Genetic mutation introduced during antibody engineering induces unpredicted defects, resulting in deterioration in antibody functions. In order to isolate antibodies for suppressing clec14a-mediated angiogenesis, tube formation and endothelial cell migration assay using human umbilical vein endothelial cells (HUVECs) were conducted in the presence or absence of clone 1 IgG and deglyco C1-C4 IgGs. Among the four types of deglyco IgGs, deglyco C1 IgG was selected as a candidate antibody. […] In addition, it can be seen that deglyco C1 IgG includes desired alterations (N32R/N33C/S34G) in the amino acid sequence in light chain CDR1.
# In order to compare in vitro angiogenesis suppression effect between deglyco C1 IgG and bevacizumab, tube formation and migration assay were conducted in the presence or absence of parent antibody IgG, deglyco C1 IgG or bevacizumab as a positive control group.
# In order to investigate in vitro effects of deglyco C1 IgG on VEGF-dependent angiogenesis, HUVECs were treated with VEGF in the presence or absence of deglyco C1 IgG, and then HUVEC tube formation assay was conducted. 150 μl of Matrigel was added to a 48-well plate and incubated at 37° C. for 30 minutes. HUVEC (10^5) cultured in EGM-2 were collected, seeded on the Matrigel-coated plate and incubated at 37° C. for 18 hours in the presence or absence of clone 1 IgG, parent antibody IgG, deglycosylated clec14a-CTLD IgG or bevacizumab. HUVECs cultured in VEGF-containing EBM (endothelial cell basal medium) were seeded to the Matrigel-coated plate and incubated at 37° C. for 18 hours in the presence or absence of deglyco C1 IgG (20 μg ml^−1).
# [2] = water-soluble antibody weighed after aggregates precipitated and removed by centrifugation; format: physicochemical
# Source text: For further comparison in stability between parent antibody IgG and clone 1 IgG, a water-soluble antibody was weighed after aggregates were precipitated and removed by centrifugation.
# [3] = molecular target: T1, hclec14a-CTLD-Fc; experiment: ELISA binding specificity
# Source text: (§1) Then, the scFv clones were converted into IgG, expressed in human embryonic kidney (HEK) 293 cells and then purified.
# [4] = molecular target: T2, mclec14a-CTLD-Fc; experiment: ELISA binding specificity
# Source text: as §1
# [5] = aggregation of purified antibody by visual observation and spectrophotometry; format: physicochemical; conditions: for aggregation by visual observation: purified antibody preparation
# Source text: In order to identify improved aggregation degree of clone 1 IgG, aggregation of purified parent antibody IgG and clone 1 IgG was compared by visual observation and then was confirmed by spectrophotometry.
molecule,measurement,setting,value
"Clone 1 IgG: parent antibody CDRs grafted to the framework region of omalizumab (Xolair®) (antibody, V domains shown) VH: EVQLVESGGGLVQPGGSLRLSCAVSGFTFSGYDMSWIRQAPGKGLEWVAGIYPDGGNTYYADSVKGRFTISRDDSKNTFYLQMNSLRAEDTAVYYCARGATWWVLGPFDYWGQGTLVTVSS VL: DIQLTQSPSSLSASVGDRVTITCTGSSSNIGNNSVTWYQQKPGKAPKLLIYADSHRPSGVPSRFSGSGSGTDFTLTISSLQPEDFATYYCGAWDDSLSGYVFGQGTKVEIKR",inhibitory activity against HUVEC tube formation,[1],"inhibitory activity against tube formation, comparable to the parent antibody"
same,antibody of the preparation aggregated,[2],no antibody aggregation was observed
same,binding to hclec14a-CTLD-Fc,[3],cross-reactivity to human and mouse CTLDs
same,binding to mclec14a-CTLD-Fc,[4],cross-reactivity to human and mouse CTLDs
same,aggregation by visual observation,[5],not visually observed
same,aggregation by visual observation,[5]; listed as the antibody substituted with the framework of omalizumab (Xolair®),no aggregation
same,Aggregation index,"[5]; spectrophotometry, 100×[Abs340/(Abs280−Abs340)]",~1.5
